In patent publication US20200339678A1 (RIGEL PHARMACEUTICALS, published 2020):
Substitutions are numbered along the chain they refer to. Values belong to the binder of their own block, whether it stands above or below them.

Target: T1, His-tagged recombinant Mouse TIGIT (mouse, UniProt P86176 29-148, limits assumed)
T1 construct: not shown: His tag
T1 sequence (looked up): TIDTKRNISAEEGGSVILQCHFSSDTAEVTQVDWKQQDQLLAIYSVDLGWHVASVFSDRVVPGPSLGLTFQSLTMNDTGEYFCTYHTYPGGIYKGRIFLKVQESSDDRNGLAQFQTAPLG
Assay: ELISA, coated His-tagged mouse TIGIT
Method: Binding affinities for antigen binding to anti-TIGIT monoclonal antibodies were determined by ELISA. […] Antibodies to be tested were diluted to 1 μM in PBS buffer containing 1% BSA and diluted 3-fold in a 10-point curve. […] Detection of the secondary antibody was determined using streptavidin-HRP and TMB reagent. All assays were performed at room temperature. Curve-fitting software was used to determine the EC₅₀ for each antibody.

EC50: 359 nM
B1: Ab11 (Fab, V domains shown)
VH: EVQLLESGGGLVQPGGSLRLSCAASGFTFSSYGMHWVRQAPGKGLEWVASISSNGGYTSYADSVKGRFTISRDNSKNTLYLQMNSLRAEDTAVYYCARVPYGYWIDYWGQGTLVTVSS
VL: not shown
notes: ARV set

EC50: 407 nM
B2: Ab88 (Fab, V domains shown)
VH: B1 VH with G33S, H35S, N54S, G55A, Y57T, Y103V
VL: not shown
notes: ARV set

EC50: 135 nM
B3: Ab30 (Fab, V domains shown)
VH: B1 VH with S52K, G55S, Y57N, S59G, G102S, Y103V, I105M
VL: not shown
notes: ARV set

EC50: 266 nM
B4: Ab73 (Fab, V domains shown)
VH: EVQLLESGGGLVQPGGSLRLSCAASGFTFSSYSMSWVRQAPGKGLEWVASIKGSAGSSSYADSVKGRFTISRDNSKNTLYLQMNSLRAEDTAVYYCARVPYDVWLDYWGQGTLVTVSS
VL: not shown
notes: ARV set

EC50: 361 nM
B5: Ab62 (Fab, V domains shown)
VH: B4 VH with K52S, G53S, S57Y, S59Y, L105I
VL: not shown
notes: ARV set

EC50: 61.2 nM
B6: Ab167 (Fab, V domains shown)
VH: B1 VH with G33A, S53G, G55A, Y57S, T58S, Y103V
VL: not shown
notes: ARV set

EC50: 110 nM
B7: Ab118 (Fab, V domains shown)
VH: B1 VH with G33A, H35S, A49S, S52N, G55A, Y57T, T58S, S59Y, I105M
VL: not shown
notes: ARV set

EC50: 535 nM
B8: Ab101 (Fab, V domains shown)
VH: B4 VH with S33A, S50D, K52S, S57T, S58I, D102G, V103Y
VL: not shown
notes: ARV set

EC50: 56.9 nM
B9: Ab31 (Fab, V domains shown)
VH: B4 VH with S33T, S35H, S50N, G53S, A55S, G56S, S57T, S58K, S59Y, V99G
VL: not shown
notes: ARG set

EC50: 181 nM
B10: Ab9 (Fab, V domains shown)
VH: B4 VH with S30D, S35H, S50N, G53S, A55G, S57Y, S58I, V99G, L105M
VL: not shown
notes: ARG set

EC50: 10.7 nM
B11: Ab117 (Fab, V domains shown)
VH: B4 VH with S33A, S50A, G53S, G56S, S57T, S58I, S59Y, V99E, D102S, L105M
VL: not shown
notes: ARE set; also called clone Ab117

EC50: 186 nM
B12: Ab111 (Fab, V domains shown)
VH: B1 VH with G33S, A49S, S50A, S53G, N54S, Y57S, S59Y, I105M
VL: not shown
notes: ARV set

EC50: 150 nM
B13: Ab125 (Fab, V domains shown)
VH: B4 VH with S35H, S54N, S57T, S58T, S59Y, R98K, L105M
VL: not shown
notes: ARV set

EC50: 230 nM
B14: Ab87 (Fab, V domains shown)
VH: B4 VH with G53S, S57Y, S58I, V103Y, L105I
VL: not shown
notes: ARV set

EC50: 242 nM
B15: Ab91 (Fab, V domains shown)
VH: B4 VH with S50A, V99E, D102S, V103Y
VL: not shown
notes: ARE set

EC50: 305 nM
B16: Ab57 (Fab, V domains shown)
VH: B4 VH with S35H, S50Y, G53S, S54D, A55T, G56S, S57T, S58I, S59G, L105I
VL: not shown
notes: ARV set

EC50: 20.9 nM
B17: Ab25 (Fab, V domains shown)
VH: B1 VH with S50A, S52K, N54S, G56S, Y57S, I105M
VL: not shown
notes: ARV set

EC50: 178 nM
B18: Ab63 (Fab, V domains shown)
VH: B1 VH with G33S, S53G, N54S, G55T, Y57T, T58S, S59Y
VL: not shown
notes: ARV set

EC50: 86.6 nM
B19: Ab79 (Fab, V domains shown)
VH: B1 VH with G33A, S50D, S52K, G55T, S59Y, Y103V
VL: not shown
notes: ARV set

EC50: 357 nM
B20: Ab35 (Fab, V domains shown)
VH: B1 VH with N54S, G55S, T58K, S59Y, G102S, I105M
VL: not shown
notes: ARV set

EC50: 48 nM
B21: Ab45 (Fab, V domains shown)
VH: B1 VH with H35N, S50R, N54S, G56S, T58I, S59G, V99G, I105L
VL: not shown
notes: ARG set

EC50: 470 nM
B22: Ab36 (Fab, V domains shown)
VH: B4 VH with S33A, G53S, A55G, G56S, S57Y, S58K, V99E, D102S, V103T
VL: not shown
notes: ARE set

EC50: 307 nM
B23: Ab81 (Fab, V domains shown)
VH: B4 VH with S35H, S54N, A55T, S59G, L105I
VL: not shown
notes: ARV set

EC50: 213 nM
B24: Ab112 (Fab, V domains shown)
VH: B1 VH with G33A, H35S, G55T, Y57S, T58I, S59Y, G102S, I105L
VL: not shown
notes: ARV set

EC50: 477 nM
B25: Ab71 (Fab, V domains shown)
VH: B1 VH with G33S, N54S, G55A, G56S, Y57T, T58S, S59Y, Y103V
VL: not shown
notes: ARV set

EC50: 125 nM
B26: Ab106 (Fab, V domains shown)
VH: B4 VH with S33A, S35N, G53S, A55T, S57T, S58I, V99E, D102S, L105I
VL: not shown
notes: ARE set

EC50: 149 nM
B27: Ab8 (Fab, V domains shown)
VH: B1 VH with G33A, H35S, S50D, S52K, S59Y, I105L
VL: not shown
notes: ARV set

EC50: 128 nM
B28: Ab44 (Fab, V domains shown)
VH: B1 VH with G33S, A49S, S50A, N54D, G56S, T58I, G102D, Y103V, I105F
VL: not shown
notes: ARV set

EC50: 60.5 nM
B29: Ab42 (Fab, V domains shown)
VH: B1 VH with S50R, S52N, Y57S, T58K, V99G, I105F
VL: not shown
notes: ARG set

EC50: 85.4 nM
B30: Ab33 (Fab, V domains shown)
VH: B1 VH with A49S, S50D, Y57T, T58I, S59Y, V99G, Y103V, I105L
VL: not shown
notes: ARG set

EC50: 111 nM
B31: Ab77 (Fab, V domains shown)
VH: B1 VH with G33S, H35N, S50A, S53G, G55T, S59Y, V99E, G102S, I105M
VL: not shown
notes: ARE set

EC50: 322 nM
B32: Ab5 (Fab, V domains shown)
VH: B4 VH with S31D, S35N, S50L, G53S, S54N, A55S, S58T, V99G, L105M
VL: not shown
notes: ARG set

EC50: 265 nM
B33: Ab128 (Fab, V domains shown)
VH: B4 VH with S35N, G56S, S57Y, S58T, V103Y, L105I
VL: not shown
notes: ARV set

EC50: 200 nM
B34: Ab182 (Fab, V domains shown)
VH: B1 VH with G33S, G55T, Y57T, S59G
VL: not shown
notes: ARV set

EC50: 169 nM
B35: Ab14 (Fab, V domains shown)
VH: B1 VH with A49S, N54S, Y57T, T58K, S59G, G102D, Y103V, I105M
VL: not shown
notes: ARV set

EC50: 578 nM
B36: Ab123 (Fab, V domains shown)
VH: B4 VH with K52S, G53S, S57T, V99E, D102G
VL: not shown
notes: ARE set

EC50: 254 nM
B37: Ab120 (Fab, V domains shown)
VH: B1 VH with G33S, H35N, A49S, S52N, G55A, Y57T, T58I, S59Y, G102D
VL: not shown
notes: ARV set

EC50: 258 nM
B38: Ab100 (Fab, V domains shown)
VH: B4 VH with S33A, K52N, S54N, S57T, S58I, V99E, D102S, V103Y
VL: not shown
notes: ARE set

EC50: 23.4 nM
B39: Ab190 (Fab, V domains shown)
VH: B1 VH with G33A, S50A, S52K, N54S, G55A, T58S, S59Y, Y103V
VL: not shown
notes: ARV set

EC50: 279 nM
B40: Ab119 (Fab, V domains shown)
VH: B4 VH with G53S, A55T, S57T, S58I, V103Y, L105M
VL: not shown
notes: ARV set

EC50: 79.8 nM
B41: Ab51 (Fab, V domains shown)
VH: B4 VH with S33A, A49S, G53S, S54N, A55S, S58K, V99E, D102S, L105M
VL: not shown
notes: ARE set

EC50: 64.1 nM
B42: Ab126 (Fab, V domains shown)
VH: B1 VH with G33A, N54S, G55T, Y57S, T58I, S59G, G102S, I105M
VL: not shown
notes: ARV set

EC50: 47.5 nM
B43: Ab26 (Fab, V domains shown)
VH: B4 VH with S50D, G53S, A55G, G56S, S57T, S58K, V99E, V103Y, L105M
VL: not shown
notes: ARE set

EC50: 289 nM
B44: Ab164 (Fab, V domains shown)
VH: EVQLLESGGGLVQPGGSLRLSCAASGFTFSSYAMSWVRQAPGKGLEWVSYINSNTGSIGYADSVKGRFTISRDNSKNTLYLQMNSLRAEDTAVYYCAREPYGVWMDYWGQGTLVTVSS
VL: not shown
notes: ARE set

EC50: 221 nM
B45: Ab37 (Fab, V domains shown)
VH: B44 VH with A33G, S35N, Y50D, T55S, I58T, G59S, E99G, M105L
VL: not shown
notes: ARG set

EC50: 778 nM
B46: Ab65 (Fab, V domains shown)
VH: B44 VH with S49A, N52K, G59S, G102S, M105L
VL: not shown
notes: ARE set

EC50: 295 nM
B47: Ab192 (Fab, V domains shown)
VH: B44 VH with S35H, Y50S, N52S, N54D, S57Y, E99V, G102D, M105I
VL: not shown
notes: ARV set

EC50: 170 nM
B48: Ab58 (Fab, V domains shown)
VH: B4 VH with S33A, A49S, G53S, S59Y, V99E, L105I
VL: not shown
notes: ARE set

EC50: 19.5 nM
B49: Ab196 (Fab, V domains shown)
VH: B4 VH with S35N, A49S, S57T, S58T, V99E, D102S, L105M
VL: not shown
notes: ARE set
